The record followed here is the supplement of paper PMC10567573.

The chains are these.
B1: SPOPL (parent)
chain: AKREETKAMESQRAYRFVQGKDWG
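Further: lentivirally expressed fusions sorted by FACS into six bins by GFP to DsRed ratio, PSI derived from sequencing read proportions per bin multiplied by bin number.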

Variants of B1 are the subject of the data set. The data set can be described thus: protein stability index of a GFP-peptide fusion (GPS, HEK-293T) (PSI 1-6); higher = more stable. The conditions noted are these: c terminus: a fixed tail appended.
With AKREETKAMECQRAYRFVQGKDWG, the protein stability index is 2.23.
For AKREETKAMESKRAYRFVQGKDWG the value was 2.94.
The value for AKREETKAMESFRAYRFVQGKDWG was 2.13.
The value for AKREETKAMESHRAYRFVQGKDWG was 2.48; that for AKREETKAMESDRAYRFVQGKDWG was 3.85.
Turning to AKREETKAMESIRAYRFVQGKDWG, the protein stability index was found to be 1.99.
The value for AKREETKAMESNRAYRFVQGKDWG was 3.35.
On to AKREETKAMESSRAYRFVQGKDWG, for which the protein stability index is 3.4.
For AKREETKAMESCRAYRFVQGKDWG, the protein stability index came to 2.55.
The value for AKREETKAMESERAYRFVQGKDWG was 3.65; that for AKREETKAMESMRAYRFVQGKDWG was 2.39.
AKREETKAMESLRAYRFVQGKDWG: the protein stability index was found to be 1.82.
Turning to AKREETKAMESRRAYRFVQGKDWG, the protein stability index was found to be 2.61.
The value for AKREETKAMESVRAYRFVQGKDWG was 2.06; that for AKREETKAMESPRAYRFVQGKDWG was 2.97; that for AKREETKAMESARAYRFVQGKDWG was 2.63.
Take AKREETKAMESGRAYRFVQGKDWG: the protein stability index was determined as 2.76.
AKREETKAMESTRAYRFVQGKDWG: the protein stability index was found to be 2.78.
The value for AKRCETKAMESQRAYRFVQGKDWG was 2.35; that for AKRPETKAMESQRAYRFVQGKDWG was 2.96; that for AKRVETKAMESQRAYRFVQGKDWG was 2.42.
For AKRIETKAMESQRAYRFVQGKDWG the value was 3.2.
For AKRAETKAMESQRAYRFVQGKDWG, the protein stability index is 2.96.
The value for AKRNETKAMESQRAYRFVQGKDWG was 2.54; that for AKRWETKAMESQRAYRFVQGKDWG was 2.59; that for AKRRETKAMESQRAYRFVQGKDWG was 2.44.
AKRHETKAMESQRAYRFVQGKDWG: the protein stability index amounted to 2.5.
Regarding AKRGETKAMESQRAYRFVQGKDWG, the protein stability index turned out to be 2.81.
For AKRQETKAMESQRAYRFVQGKDWG the value was 2.65.
For AKRSETKAMESQRAYRFVQGKDWG the value was 3.05.
For the variant AKRFETKAMESQRAYRFVQGKDWG, the protein stability index is 2.21.
With AKRKETKAMESQRAYRFVQGKDWG, the protein stability index was determined as 2.77.
The value for AKRMETKAMESQRAYRFVQGKDWG was 2.63.
As for AKRYETKAMESQRAYRFVQGKDWG, the protein stability index was determined as 2.02.
Take AKRTETKAMESQRAYRFVQGKDWG: the protein stability index stood at 3.
For AKRLETKAMESQRAYRFVQGKDWG the value was 2.26; for AKRDETKAMESQRAYRFVQGKDWG, 3.26; for AKEEETKAMESQRAYRFVQGKDWG, 4.03.
For AKGEETKAMESQRAYRFVQGKDWG the value was 3; for AKCEETKAMESQRAYRFVQGKDWG, 2.26.
Consider AKHEETKAMESQRAYRFVQGKDWG, for which the protein stability index was 2.45.
With AKKEETKAMESQRAYRFVQGKDWG, the protein stability index was found to be 3.38.
The value for AKAEETKAMESQRAYRFVQGKDWG was 3.49; that for AKLEETKAMESQRAYRFVQGKDWG was 3.31.
The value for AKQEETKAMESQRAYRFVQGKDWG was 3.22; that for AKIEETKAMESQRAYRFVQGKDWG was 3.36; that for AKNEETKAMESQRAYRFVQGKDWG was 2.91.
For AKYEETKAMESQRAYRFVQGKDWG, the protein stability index was found to be 2.93.
Turning to AKVEETKAMESQRAYRFVQGKDWG, the protein stability index was found to be 3.24.
The value for AKDEETKAMESQRAYRFVQGKDWG was 3.67; that for AKFEETKAMESQRAYRFVQGKDWG was 2.87; that for AKPEETKAMESQRAYRFVQGKDWG was 2.67.
Take AKSEETKAMESQRAYRFVQGKDWG: the protein stability index worked out at 3.34.
In the case of AKWEETKAMESQRAYRFVQGKDWG, the protein stability index came out at 3.08.
As for AKMEETKAMESQRAYRFVQGKDWG, the protein stability index amounted to 3.32.
The value for AKTEETKAMESQRAYRFVQGKDWG was 2.88.
Regarding AKREETKMMESQRAYRFVQGKDWG, the protein stability index was 2.87.
Take AKREETKTMESQRAYRFVQGKDWG: the protein stability index came to 3.37.
For AKREETKGMESQRAYRFVQGKDWG the value was 2.48; for AKREETKDMESQRAYRFVQGKDWG, 4.01; for AKREETKQMESQRAYRFVQGKDWG, 3.75.
For AKREETKFMESQRAYRFVQGKDWG the value was 2.35; for AKREETKEMESQRAYRFVQGKDWG, 4.1; for AKREETKPMESQRAYRFVQGKDWG, 2.9.
As to AKREETKWMESQRAYRFVQGKDWG, the protein stability index amounted to 1.37.
For the variant AKREETKYMESQRAYRFVQGKDWG, the protein stability index amounted to 2.77.
For AKREETKKMESQRAYRFVQGKDWG the value was 3.44; for AKREETKNMESQRAYRFVQGKDWG, 3.03.
The value for AKREETKLMESQRAYRFVQGKDWG was 2.38; that for AKREETKIMESQRAYRFVQGKDWG was 2.53; that for AKREETKSMESQRAYRFVQGKDWG was 3.37.
Consider AKREETKRMESQRAYRFVQGKDWG, for which the protein stability index came to 3.43.
As to AKREETKCMESQRAYRFVQGKDWG, the protein stability index came to 2.75.
For AKREETKVMESQRAYRFVQGKDWG the value was 2.42; for AKREETKHMESQRAYRFVQGKDWG, 3.28.
For AKREETKAMCSQRAYRFVQGKDWG the value was 2.63.
The value for AKREETKAMNSQRAYRFVQGKDWG was 3.34.
For the variant AKREETKAMASQRAYRFVQGKDWG, the protein stability index was determined as 2.61.
For the variant AKREETKAMVSQRAYRFVQGKDWG, the protein stability index came to 2.75.
The value for AKREETKAMISQRAYRFVQGKDWG was 2.15; that for AKREETKAMQSQRAYRFVQGKDWG was 2.95; that for AKREETKAMLSQRAYRFVQGKDWG was 2.3.
Consider AKREETKAMMSQRAYRFVQGKDWG, for which the protein stability index was found to be 2.29.
Regarding AKREETKAMPSQRAYRFVQGKDWG, the protein stability index was 3.18.
For the variant AKREETKAMYSQRAYRFVQGKDWG, the protein stability index stood at 1.73.
For AKREETKAMRSQRAYRFVQGKDWG the value was 2.39; for AKREETKAMTSQRAYRFVQGKDWG, 3.06.
On to AKREETKAMFSQRAYRFVQGKDWG, for which the protein stability index turned out to be 2.37.
For AKREETKAMWSQRAYRFVQGKDWG the value was 2.4; for AKREETKAMDSQRAYRFVQGKDWG, 3.02; for AKREETKAMSSQRAYRFVQGKDWG, 3.
The value for AKREETKAMHSQRAYRFVQGKDWG was 2.33; that for AKREETKAMGSQRAYRFVQGKDWG was 2.69; that for AKREETKAMKSQRAYRFVQGKDWG was 2.96.
